What was measured:
[1] = target: HIV envelope gp120 of HIV-1 strain HXB2 engineered to express Green Fluorescence Protein (HIV-1) (UniProt P04578); assay: cell-based or functional assay
[2] = target: HIV envelope gp120 of HIV recombinant strain NL43 that expresses GFP (HIV-1); assay: cell-based or functional assay

For sCD4(D1+D2)-IgG1 Fc (Fc fusion), the % GFP positive C8166 cells, HXB2-GFP with version 1, replicate 2 [1] was 1.22%, the inhibition of virus infection, HXB2-GFP challenge of C8166 cells [1] was 91% and the % GFP positive C8166 cells, NL4-GFP with version 1, average [2] was 8.47%. The % GFP positive C8166 cells, NL4-GFP with version 1, replicate 2 [2] was 7.49%, the % GFP positive cells, FIG. 8A, AGT117-transduced PBMC, column NL43-sCD4-Ig (control 0.46%) [2] was 0.26% and the % GFP positive cells, FIG. 8B, AGT117-transduced PBMC, column NL43-sCD4-Ig (control 7.75%) [2] was 2.98%. The % HIV positive primary CD4 T cells, AGT117-transduced (control 2.83%) [2] was 0.65%, the decrease in HIV infection, primary CD4 T cells [2] was 77% and the proportion of infected CD4 T cells, AGT117-transduced (no vector average of 2%) [2] was 0.024%. It also gave a virus inhibition, NL4-GFP challenge of C8166 cells [2] of 53%.

In the case of “3BNC117 antibody (IL-2 secretory signal construct, expressed from AGT112)”, the % GFP positive (HIV-infected) cells, transduced PBMC, donor NY025 (control without vector 3.96%) [2] is reported as 1.79% and the % GFP positive (HIV-infected) cells, transduced PBMC, donor NY026 (control without vector 0.57%) [2] is reported as 0.3%.

Substance “VRC01 antibody (antibody secretory signal construct, expressed from AGT113)” has a % HIV positive primary CD4 T cells, AGT113-transduced (un-transduced 1.28%) [2] of 0.36% and a decrease in HIV infection, C8166 cells [2] of 96.7%.

“sCD4(D1+D2) (from UniProt P01730 26-203) (receptor)” was tested, and the % GFP positive cells, FIG. 8A, AGT116-transduced PBMC (control 0.46%) [2] was 0.3%, the % GFP positive cells, FIG. 8B, AGT116-transduced PBMC (control 7.75%) [2] was 3.67% and the % HIV positive primary CD4 T cells, AGT116-transduced (control 2.83%) [2] was 2.65%.

“VRC01 antibody (IL-2 secretory signal construct, expressed from AGT111)” was tested, and the % GFP positive cells, CD4 T cells, AGT111 at 2 MOI, day 5 (no vector 0.71%) [2] was 0.38%, the % GFP positive cells, CD4 T cells, AGT111 at 2 MOI, day 7 (no vector 2.18%) [2] was 1.37% and the % GFP positive cells, CD4 T cells, AGT111 at 4 MOI, day 5 (no vector 0.71%) [2] was 0.32%. For the same substance, the % GFP positive cells, CD4 T cells, AGT111 at 4 MOI, day 7 (no vector 2.18%) [2] was 0.94%, the % GFP positive cells, CD4 T cells, AGT111 at 8 MOI, day 5 (no vector 0.71%) [2] was 0.25% and the % GFP positive cells, CD4 T cells, AGT111 at 8 MOI, day 7 (no vector 2.18%) [2] was 0.36%. It also gave a decrease in HIV infection, C8166 cells [2] of 75.4%, a percent inhibition (cells protected), day 5, AGT111 MOI 8 [2] of 88% and a percent inhibition (cells protected), day 7, AGT111 MOI 8 [2] of 93%. For the same substance, the percent inhibition (cells protected), day 9, AGT111 MOI 2 [2] was 6% and the percent inhibition (cells protected), day 9, AGT111 MOI 4 [2] was 7%.
